Experiments:
Experiment in all cases: holdup assay
Set-up in all cases: key: below the threshold = too weak to quantify, mostly under pKd 3.1 to 4
MAGI2_5, Q86UL8 = target: MAGI2_5, Q86UL8
LNX1_2, Q8TBB1 = target: LNX1_2, Q8TBB1
MPDZ_12, O75970 = target: T1, MPDZ_12, O75970
T1 sequence (O75970 1857-1958, limits assumed, looked up): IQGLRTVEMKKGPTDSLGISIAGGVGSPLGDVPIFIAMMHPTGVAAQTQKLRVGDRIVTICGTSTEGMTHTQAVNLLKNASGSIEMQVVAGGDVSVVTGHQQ

FRMPD4, Q14CM0 = target: FRMPD4, Q14CM0
Inadl_3, Q8NI35 = target: Inadl_3, Q8NI35
Chain of Inadl_3, Q8NI35 (Q8NI35 359-469): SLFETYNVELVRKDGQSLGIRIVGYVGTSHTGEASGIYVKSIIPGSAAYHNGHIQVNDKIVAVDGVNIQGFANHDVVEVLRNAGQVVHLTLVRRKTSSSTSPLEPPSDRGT

PDZRN4_1, Q6ZMN7 = target: PDZRN4_1, Q6ZMN7
Chain of PDZRN4_1, Q6ZMN7 (Q6ZMN7 213-318): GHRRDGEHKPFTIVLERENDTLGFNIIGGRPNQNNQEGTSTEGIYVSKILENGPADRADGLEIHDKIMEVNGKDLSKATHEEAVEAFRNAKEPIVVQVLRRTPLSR

APBA3_1, O96018 = target: T2, APBA3_1, O96018
T2 sequence (O96018 389-490, limits assumed, looked up): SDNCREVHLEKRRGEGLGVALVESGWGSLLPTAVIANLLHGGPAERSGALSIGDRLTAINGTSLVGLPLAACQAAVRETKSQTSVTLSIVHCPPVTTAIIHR

PDZD7_3, Q9H5P4 = target: T3, PDZD7_3, Q9H5P4
T3 sequence (Q9H5P4 857-944, limits assumed, looked up): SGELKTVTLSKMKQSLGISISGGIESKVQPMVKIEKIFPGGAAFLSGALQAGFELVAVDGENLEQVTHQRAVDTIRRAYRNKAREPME

LNX2_2, Q8N448 = target: T4, LNX2_2, Q8N448
T4 sequence (Q8N448 334-432, limits assumed, looked up): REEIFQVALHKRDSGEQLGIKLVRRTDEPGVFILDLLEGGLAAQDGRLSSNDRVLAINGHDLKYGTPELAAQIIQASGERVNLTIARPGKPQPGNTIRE

SHANK1, Q9Y566 = target: T5, SHANK1, Q9Y566
T5 sequence (Q9Y566 658-767, limits assumed, looked up): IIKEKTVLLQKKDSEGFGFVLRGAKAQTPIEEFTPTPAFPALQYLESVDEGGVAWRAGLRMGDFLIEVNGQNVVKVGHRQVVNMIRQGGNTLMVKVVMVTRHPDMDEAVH

DLG4_2, P78352 = target: DLG4_2, P78352
Chain of DLG4_2, P78352 (P78352 155-259): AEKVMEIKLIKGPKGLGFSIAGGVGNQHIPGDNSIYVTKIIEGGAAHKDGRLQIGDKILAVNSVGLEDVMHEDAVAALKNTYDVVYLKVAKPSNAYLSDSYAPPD

AHNAK1, Q09666 = target: AHNAK1, Q09666
Chain of AHNAK1, Q09666 (Q09666 4-100): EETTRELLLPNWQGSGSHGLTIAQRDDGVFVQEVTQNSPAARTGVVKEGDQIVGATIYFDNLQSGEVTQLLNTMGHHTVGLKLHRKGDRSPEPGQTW

DLG2_2, Q15700 = target: DLG2_2, Q15700
Chain of DLG2_2, Q15700 (Q15700 189-283): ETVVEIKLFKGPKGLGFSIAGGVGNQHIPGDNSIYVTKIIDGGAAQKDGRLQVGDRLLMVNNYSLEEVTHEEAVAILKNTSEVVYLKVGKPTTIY

RAPGEF6, Q8TEU7 = target: T6, RAPGEF6, Q8TEU7
T6 sequence (Q8TEU7 525-625, limits assumed, looked up): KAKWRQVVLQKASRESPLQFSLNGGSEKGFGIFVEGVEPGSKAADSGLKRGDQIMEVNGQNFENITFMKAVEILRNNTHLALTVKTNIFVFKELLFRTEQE

Inadl_9, Q8NI35 = target: Inadl_9, Q8NI35
Chain of Inadl_9, Q8NI35 (Q8NI35 1530-1615): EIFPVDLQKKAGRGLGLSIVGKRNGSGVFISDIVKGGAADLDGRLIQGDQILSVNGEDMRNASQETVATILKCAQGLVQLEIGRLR

DLG1_1, Q12959 = target: DLG1_1, Q12959
NHERF3_4, Q5T2W1 = target: T7, NHERF3_4, Q5T2W1
T7 sequence (Q5T2W1 373-468, limits assumed, looked up): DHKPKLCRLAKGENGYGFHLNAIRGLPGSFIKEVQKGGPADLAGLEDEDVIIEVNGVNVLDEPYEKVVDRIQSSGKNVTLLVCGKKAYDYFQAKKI

MAGI2_6, Q86UL8 = target: MAGI2_6, Q86UL8
Chain of MAGI2_6, Q86UL8 (Q86UL8 1141-1229): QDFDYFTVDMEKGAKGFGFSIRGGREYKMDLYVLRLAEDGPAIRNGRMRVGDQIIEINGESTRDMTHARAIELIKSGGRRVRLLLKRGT

LNX1_1, Q8TBB1 = target: LNX1_1, Q8TBB1
Chain of LNX1_1, Q8TBB1 (Q8TBB1 261-371): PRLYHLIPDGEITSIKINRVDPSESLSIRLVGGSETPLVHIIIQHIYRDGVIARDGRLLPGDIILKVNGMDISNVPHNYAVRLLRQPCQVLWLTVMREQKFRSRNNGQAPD

DLG4_3, P78352 = target: DLG4_3, P78352
Chain of DLG4_3, P78352 (P78352 306-403): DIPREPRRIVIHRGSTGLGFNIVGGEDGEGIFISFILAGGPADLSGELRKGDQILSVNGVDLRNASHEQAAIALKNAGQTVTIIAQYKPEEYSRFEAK

LIMK2, P53671 = target: LIMK2, P53671
Chain of LIMK2, P53671 (P53671 143-248): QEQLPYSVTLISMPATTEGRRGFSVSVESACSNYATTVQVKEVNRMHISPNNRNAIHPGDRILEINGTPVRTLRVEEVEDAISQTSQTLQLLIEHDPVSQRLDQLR

GRIP1_5, Q9Y3R0 = target: T8, GRIP1_5, Q9Y3R0
T8 sequence (Q9Y3R0 568-668, limits assumed, looked up): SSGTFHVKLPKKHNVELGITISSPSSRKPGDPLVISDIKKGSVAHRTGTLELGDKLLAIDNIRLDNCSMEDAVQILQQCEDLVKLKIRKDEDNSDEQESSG

Inadl_1, Q8NI35 = target: Inadl_1, Q8NI35
Chain of Inadl_1, Q8NI35 (Q8NI35 113-229): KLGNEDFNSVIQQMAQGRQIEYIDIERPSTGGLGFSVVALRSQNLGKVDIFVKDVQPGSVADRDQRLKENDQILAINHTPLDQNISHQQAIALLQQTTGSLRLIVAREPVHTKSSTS

HTRA4, P83105 = target: T9, HTRA4, P83105
T9 sequence (P83105 378-476, limits assumed, looked up): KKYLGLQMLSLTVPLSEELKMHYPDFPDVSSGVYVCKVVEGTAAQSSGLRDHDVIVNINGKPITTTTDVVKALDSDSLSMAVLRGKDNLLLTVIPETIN

PTPN3, P26045 = target: PTPN3, P26045
Chain of PTPN3, P26045 (P26045 505-587): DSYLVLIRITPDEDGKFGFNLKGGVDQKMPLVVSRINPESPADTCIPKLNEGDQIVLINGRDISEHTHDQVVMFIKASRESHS

APBA2_2, Q99767 = target: T10, APBA2_2, Q99767
T10 sequence (Q99767 654-744, limits assumed, looked up): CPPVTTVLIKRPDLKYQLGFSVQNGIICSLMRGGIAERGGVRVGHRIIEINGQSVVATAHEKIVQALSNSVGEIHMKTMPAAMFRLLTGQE

PTPN13_1, Q12923 = target: T11, PTPN13_1, Q12923
T11 sequence (Q12923 1088-1188, limits assumed, looked up): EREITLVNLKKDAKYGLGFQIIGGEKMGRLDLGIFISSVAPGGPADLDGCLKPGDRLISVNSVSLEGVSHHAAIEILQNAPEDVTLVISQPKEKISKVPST

[1] = plain residues with an end cap or a label only (N-terminal biotin on a linker: ado-ado)
[2] = plain residues with an end cap or a label only (N-terminal biotin on a linker: ahx)

Chain of MAGI2_5, Q86UL8 (Q86UL8 915-1017): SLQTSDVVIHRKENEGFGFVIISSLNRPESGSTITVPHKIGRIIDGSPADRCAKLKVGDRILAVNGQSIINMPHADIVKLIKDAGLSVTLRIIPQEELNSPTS
Chain of FRMPD4, Q14CM0 (Q14CM0 67-160): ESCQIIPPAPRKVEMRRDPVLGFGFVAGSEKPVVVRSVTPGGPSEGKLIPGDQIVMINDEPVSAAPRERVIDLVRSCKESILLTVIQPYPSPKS
Chain of LNX1_2, Q8TBB1 (Q8TBB1 371-470): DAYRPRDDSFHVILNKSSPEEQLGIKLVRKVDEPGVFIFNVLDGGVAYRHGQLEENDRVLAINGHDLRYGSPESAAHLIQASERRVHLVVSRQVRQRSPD

## DGVNEKVSCV [HTR2A, P28223]
MAGI2_5, Q86UL8; [1]
  pKd: 4.78
LNX1_2, Q8TBB1; [1]
  pKd: below the threshold
MPDZ_12, O75970; [1]
  pKd: below the threshold
FRMPD4, Q14CM0; [1]
  pKd: below the threshold
Inadl_3, Q8NI35; [1]
  pKd: below the threshold
PDZRN4_1, Q6ZMN7; [1]
  pKd: below the threshold
APBA3_1, O96018; [1]
  pKd: below the threshold
PDZD7_3, Q9H5P4; [1]
  pKd: 4.72
LNX2_2, Q8N448; [1]
  pKd: 4.42
SHANK1, Q9Y566; [1]
  pKd: below the threshold
DLG4_2, P78352; [1]
  pKd: 4.74
AHNAK1, Q09666; [1]
  pKd: below the threshold
DLG2_2, Q15700; [1]
  pKd: 4.56
RAPGEF6, Q8TEU7; [1]
  pKd: below the threshold
Inadl_9, Q8NI35; [1]
  pKd: below the threshold
DLG1_1, Q12959; [1]
  pKd: 3.84
NHERF3_4, Q5T2W1; [1]
  pKd: below the threshold
MAGI2_6, Q86UL8; [1]
  pKd: 4.47
LNX1_1, Q8TBB1; [1]
  pKd: 4.48
DLG4_3, P78352; [1]
  pKd: below the threshold
LIMK2, P53671; [1]
  pKd: below the threshold
GRIP1_5, Q9Y3R0; [1]
  pKd: below the threshold
Inadl_1, Q8NI35; [1]
  pKd: below the threshold
HTRA4, P83105; [1]
  pKd: 3.71
PTPN3, P26045; [1]
  pKd: 4.86
APBA2_2, Q99767; [1]
  pKd: below the threshold
PTPN13_1, Q12923; [1]
  pKd: below the threshold

## TESNLQTSSC [CGN, Q9P2M7]
MAGI2_5, Q86UL8; [2]
  pKd: below the threshold
LNX1_2, Q8TBB1; [2]
  pKd: below the threshold
MPDZ_12, O75970; [2]
  pKd: below the threshold
FRMPD4, Q14CM0; [2]
  pKd: below the threshold
Inadl_3, Q8NI35; [2]
  pKd: 3.64
PDZRN4_1, Q6ZMN7; [2]
  pKd: below the threshold
APBA3_1, O96018; [2]
  pKd: below the threshold
PDZD7_3, Q9H5P4; [2]
  pKd: below the threshold
LNX2_2, Q8N448; [2]
  pKd: below the threshold
SHANK1, Q9Y566; [2]
  pKd: below the threshold
DLG4_2, P78352; [2]
  pKd: below the threshold
AHNAK1, Q09666; [2]
  pKd: below the threshold
DLG2_2, Q15700; [2]
  pKd: below the threshold
RAPGEF6, Q8TEU7; [2]
  pKd: below the threshold
Inadl_9, Q8NI35; [2]
  pKd: below the threshold
DLG1_1, Q12959; [2]
  pKd: below the threshold
NHERF3_4, Q5T2W1; [2]
  pKd: below the threshold
MAGI2_6, Q86UL8; [2]
  pKd: below the threshold
LNX1_1, Q8TBB1; [2]
  pKd: 3.47
DLG4_3, P78352; [2]
  pKd: below the threshold
LIMK2, P53671; [2]
  pKd: below the threshold
GRIP1_5, Q9Y3R0; [2]
  pKd: below the threshold
Inadl_1, Q8NI35; [2]
  pKd: below the threshold
HTRA4, P83105; [2]
  pKd: below the threshold
PTPN3, P26045; [2]
  pKd: below the threshold
APBA2_2, Q99767; [2]
  pKd: below the threshold
PTPN13_1, Q12923; [2]
  pKd: below the threshold

## APSRKLNTEI [TIAM1, Q13009]
MAGI2_5, Q86UL8; [2]
  pKd: below the threshold
LNX1_2, Q8TBB1; [2]
  pKd: below the threshold
MPDZ_12, O75970; [2]
  pKd: below the threshold
FRMPD4, Q14CM0; [2]
  pKd: below the threshold
Inadl_3, Q8NI35; [2]
  pKd: below the threshold
PDZRN4_1, Q6ZMN7; [2]
  pKd: below the threshold
APBA3_1, O96018; [2]
  pKd: below the threshold
PDZD7_3, Q9H5P4; [2]
  pKd: 4.08
LNX2_2, Q8N448; [2]
  pKd: below the threshold
SHANK1, Q9Y566; [2]
  pKd: below the threshold
DLG4_2, P78352; [2]
  pKd: 3.88
AHNAK1, Q09666; [2]
  pKd: below the threshold
DLG2_2, Q15700; [2]
  pKd: below the threshold
RAPGEF6, Q8TEU7; [2]
  pKd: below the threshold
Inadl_9, Q8NI35; [2]
  pKd: below the threshold
DLG1_1, Q12959; [2]
  pKd: below the threshold
NHERF3_4, Q5T2W1; [2]
  pKd: below the threshold
MAGI2_6, Q86UL8; [2]
  pKd: below the threshold
LNX1_1, Q8TBB1; [2]
  pKd: below the threshold
DLG4_3, P78352; [2]
  pKd: below the threshold
LIMK2, P53671; [2]
  pKd: below the threshold
GRIP1_5, Q9Y3R0; [2]
  pKd: below the threshold
Inadl_1, Q8NI35; [2]
  pKd: below the threshold
HTRA4, P83105; [2]
  pKd: below the threshold
PTPN3, P26045; [2]
  pKd: below the threshold
APBA2_2, Q99767; [2]
  pKd: below the threshold
PTPN13_1, Q12923; [2]
  pKd: below the threshold

## RSSGGDDFWF [KCNV1, Q6PIU1]
MAGI2_5, Q86UL8; [1]
  pKd: below the threshold
LNX1_2, Q8TBB1; [1]
  pKd: below the threshold
MPDZ_12, O75970; [1]
  pKd: below the threshold
FRMPD4, Q14CM0; [1]
  pKd: 4.67
Inadl_3, Q8NI35; [1]
  pKd: 3.59
PDZRN4_1, Q6ZMN7; [1]
  pKd: below the threshold
APBA3_1, O96018; [1]
  pKd: below the threshold
PDZD7_3, Q9H5P4; [1]
  pKd: 3.92
LNX2_2, Q8N448; [1]
  pKd: 3.8
SHANK1, Q9Y566; [1]
  pKd: below the threshold
DLG4_2, P78352; [1]
  pKd: below the threshold
AHNAK1, Q09666; [1]
  pKd: below the threshold
DLG2_2, Q15700; [1]
  pKd: below the threshold
RAPGEF6, Q8TEU7; [1]
  pKd: below the threshold
Inadl_9, Q8NI35; [1]
  pKd: below the threshold
DLG1_1, Q12959; [1]
  pKd: below the threshold
NHERF3_4, Q5T2W1; [1]
  pKd: below the threshold
MAGI2_6, Q86UL8; [1]
  pKd: below the threshold
LNX1_1, Q8TBB1; [1]
  pKd: below the threshold
DLG4_3, P78352; [1]
  pKd: below the threshold
LIMK2, P53671; [1]
  pKd: below the threshold
GRIP1_5, Q9Y3R0; [1]
  pKd: below the threshold
Inadl_1, Q8NI35; [1]
  pKd: below the threshold
HTRA4, P83105; [1]
  pKd: below the threshold
PTPN3, P26045; [1]
  pKd: 4.35
APBA2_2, Q99767; [1]
  pKd: below the threshold
PTPN13_1, Q12923; [1]
  pKd: below the threshold

## GTGYDRKDYV [CLDN3, O15551]
MAGI2_5, Q86UL8; [1]
  pKd: below the threshold
LNX1_2, Q8TBB1; [1]
  pKd: below the threshold
MPDZ_12, O75970; [1]
  pKd: below the threshold
FRMPD4, Q14CM0; [1]
  pKd: 3.56
Inadl_3, Q8NI35; [1]
  pKd: below the threshold
PDZRN4_1, Q6ZMN7; [1]
  pKd: below the threshold
APBA3_1, O96018; [1]
  pKd: below the threshold
PDZD7_3, Q9H5P4; [1]
  pKd: 4
LNX2_2, Q8N448; [1]
  pKd: 4.04
SHANK1, Q9Y566; [1]
  pKd: below the threshold
DLG4_2, P78352; [1]
  pKd: 3.63
AHNAK1, Q09666; [1]
  pKd: below the threshold
DLG2_2, Q15700; [1]
  pKd: below the threshold
RAPGEF6, Q8TEU7; [1]
  pKd: below the threshold
Inadl_9, Q8NI35; [1]
  pKd: 3.93
DLG1_1, Q12959; [1]
  pKd: below the threshold
NHERF3_4, Q5T2W1; [1]
  pKd: below the threshold
MAGI2_6, Q86UL8; [1]
  pKd: 3.52
LNX1_1, Q8TBB1; [1]
  pKd: below the threshold
DLG4_3, P78352; [1]
  pKd: below the threshold
LIMK2, P53671; [1]
  pKd: below the threshold
GRIP1_5, Q9Y3R0; [1]
  pKd: below the threshold
Inadl_1, Q8NI35; [1]
  pKd: below the threshold
HTRA4, P83105; [1]
  pKd: below the threshold
PTPN3, P26045; [1]
  pKd: 4.04
APBA2_2, Q99767; [1]
  pKd: below the threshold
PTPN13_1, Q12923; [1]
  pKd: below the threshold

Source: PMC9482650, “Quantitative fragmentomics allow affinity mapping of interactomes” (Nature Communications, 2022)
